The record followed here is patent US20240084044A1, “Heteromultivalent Nucleic Acid Scaffolds and Uses Thereof” (George Mason University, priority 2022, published 2024).

Bridges are numbered along the chain shown (N, C = ends). Roman numbers before positions name the chains, in order.

Series [1] relates to IL-1β signaling (HEK-Blue IL-1β cells). Nature of the series: SEAP reporter assay in HEK-Blue IL-1β reporter cells. It counts as cell-based, human. The note with it: 10 μM; 250 pg/mL IL-1β. How it is done: HEK-Blue® IL-33 (Invivogen, Cat. #hkb-hil33) and IL-1β cells (Invivogen, Cat #hkb-il1bv2) were cultured in T25 and T75 flasks (NUNC, Cat. #156367 and #156499) in DMEM media supplemented with L-glutamine (Gibco, Cat. #11995-065), 10% Fetal Bovine Serum (Gibco, Cat. #10437-028), 1% Penicillin/Streptomycin (Gibco, Cat. #15140-148), and 0.5% Normacin® (Invivogen, Cat. #ant-hr-1). IL-33 cell growth media also included 1 mL of 250× Selectin Cocktail® (Invivogen, Cat. #hb-sel) and IL-1β cell growth media included 100 μg/mL of Zeocin® (Cat #ant-zn-05). Cells were maintained at 37° C. with humidity and 5% CO2 and were passaged upon reaching 80-85% confluency. To ensure assay consistency, passage number was kept low (<20) to maintain stable ST2 and IL-1RI expression.
IL-33 and IL-1β signaling activation was assessed based on the expression of a SEAP reporter gene. Flasks were washed 2× with prewarmed, sterile PBS (Gibco), scraped in fresh media, and spun down for 5 m at 250×g. Pellet was resuspended in 5 mL test medium (DMEM, 10% heat inactivated FBS, and 1% P/S), cells counted, and concentration adjusted to 2.8×10^5 cell/mL. […] After incubation, SEAP reporter gene phosphatase activity was measured by adding 20 μL of supernatant from each well to 180 μL of QuantiBLUE substrate (Invivogen, Cat #rep-qbs) and incubated an additional 30 min at 37° C. Colorimetric absorbance was measured at 620 nm. […]

The subject of another series is HEK-Blue cells. Nature of the series: CellTiterGlo cell viability / cellular cytotoxicity assay. It counts as cell-based, human.

With “MSTOP: 3WJ DNA scaffold whose three DBCO staple strands carry cyclized azidolysine IL-1RAcP hotspot peptides; decoy for IL-33/ST2 (peptide 1 Ac-CKEYGIQRITC-NH2; peptide 2 Ac-AKVGSPKNAVPPC-NH2; peptide 3 Ac-CKGEVAKAAKVKC-NH2; disulfide I:1-I:11, III:1-III:13; thioether II:1-II:13; not fully specified (some residues); also: three peptides held on a 3-way junction DNA scaffold via DBCO staple strands)”, in series [1], the “reduction in SEAP expression” value is “Negligible reduction”. For the same substance, in the series on HEK-Blue cells (10 μM, CellTiterGlo), the cell viability result was “did not decrease cell viability”. Further, the cellular cytotoxicity entry with HEK-Blue cells (FIG. 4F, concentrations in μM) is given as “not toxic”.
